T1: pyridox(am)ine 5′-phosphate oxidase (PNPO) (Homo sapiens, UniProt Q9NVS9)
T1 construct: homodimer with FMN
T1 sequence (Q9NVS9 1-261): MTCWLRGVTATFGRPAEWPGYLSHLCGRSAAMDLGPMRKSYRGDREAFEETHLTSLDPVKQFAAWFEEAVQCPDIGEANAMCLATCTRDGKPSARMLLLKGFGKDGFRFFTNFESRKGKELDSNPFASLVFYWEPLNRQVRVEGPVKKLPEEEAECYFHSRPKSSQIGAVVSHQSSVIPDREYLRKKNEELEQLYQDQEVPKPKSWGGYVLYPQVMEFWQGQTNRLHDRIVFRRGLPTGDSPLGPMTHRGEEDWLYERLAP

B1: pyridox(am)ine 5′-phosphate oxidase, wild type (enzyme, human)
chain: MTCWLRGVTATFGRPAEWPGYLSHLCGRSAAMDLGPMRKSYRGDREAFEETHLTSLDPVKQFAAWFEEAVQCPDIGEANAMCLATCTRDGKPSARMLLLKGFGKDGFRFFTNFESRKGKELDSNPFASLVFYWEPLNRQVRVEGPVKKLPEEEAECYFHSRPKSSQIGAVVSHQSSVIPDREYLRKKNEELEQLYQDQEVPKPKSWGGYVLYPQVMEFWQGQTNRLHDRIVFRRGLPTGDSPLGPMTHRGEEDWLYERLAP
notes: human pyridox(am)ine 5′-phosphate oxidase (PNPO), recombinant; The vector pET28-PNPO is named only for the variants; also called PNPO; WT; source: recombinant, purified by the protocol of [4]
B2: pyridox(am)ine 5′-phosphate oxidase E50K variant (enzyme, human)
chain: MTCWLRGVTATFGRPAEWPGYLSHLCGRSAAMDLGPMRKSYRGDREAFEKTHLTSLDPVKQFAAWFEEAVQCPDIGEANAMCLATCTRDGKPSARMLLLKGFGKDGFRFFTNFESRKGKELDSNPFASLVFYWEPLNRQVRVEGPVKKLPEEEAECYFHSRPKSSQIGAVVSHQSSVIPDREYLRKKNEELEQLYQDQEVPKPKSWGGYVLYPQVMEFWQGQTNRLHDRIVFRRGLPTGDSPLGPMTHRGEEDWLYERLAP
notes: human PNPO, natural variant E50K made by site-directed mutagenesis in pET28-PNPO; also called PNPO E50K; source: E. coli Rosetta (DE3), purified as described in [4]
B3: pyridox(am)ine 5′-phosphate oxidase P213S variant (enzyme, human)
chain: MTCWLRGVTATFGRPAEWPGYLSHLCGRSAAMDLGPMRKSYRGDREAFEETHLTSLDPVKQFAAWFEEAVQCPDIGEANAMCLATCTRDGKPSARMLLLKGFGKDGFRFFTNFESRKGKELDSNPFASLVFYWEPLNRQVRVEGPVKKLPEEEAECYFHSRPKSSQIGAVVSHQSSVIPDREYLRKKNEELEQLYQDQEVPKPKSWGGYVLYSQVMEFWQGQTNRLHDRIVFRRGLPTGDSPLGPMTHRGEEDWLYERLAP
notes: human PNPO, patient variant P213S made by site-directed mutagenesis in pET28-PNPO; also called PNPO P213S; source: E. coli Rosetta (DE3), purified as described in [4]
B4: pyridox(am)ine 5′-phosphate oxidase D33V variant (enzyme, human)
chain: MTCWLRGVTATFGRPAEWPGYLSHLCGRSAAMVLGPMRKSYRGDREAFEETHLTSLDPVKQFAAWFEEAVQCPDIGEANAMCLATCTRDGKPSARMLLLKGFGKDGFRFFTNFESRKGKELDSNPFASLVFYWEPLNRQVRVEGPVKKLPEEEAECYFHSRPKSSQIGAVVSHQSSVIPDREYLRKKNEELEQLYQDQEVPKPKSWGGYVLYPQVMEFWQGQTNRLHDRIVFRRGLPTGDSPLGPMTHRGEEDWLYERLAP
notes: human PNPO, patient variant D33V made by site-directed mutagenesis in pET28-PNPO; also called PNPO D33V; source: E. coli Rosetta (DE3), purified as described in [4]
B5: pyridox(am)ine 5′-phosphate oxidase R161C variant (enzyme, human)
chain: MTCWLRGVTATFGRPAEWPGYLSHLCGRSAAMDLGPMRKSYRGDREAFEETHLTSLDPVKQFAAWFEEAVQCPDIGEANAMCLATCTRDGKPSARMLLLKGFGKDGFRFFTNFESRKGKELDSNPFASLVFYWEPLNRQVRVEGPVKKLPEEEAECYFHSCPKSSQIGAVVSHQSSVIPDREYLRKKNEELEQLYQDQEVPKPKSWGGYVLYPQVMEFWQGQTNRLHDRIVFRRGLPTGDSPLGPMTHRGEEDWLYERLAP
notes: human PNPO, patient variant R161C made by site-directed mutagenesis in pET28-PNPO; also called PNPO R161C; source: E. coli Rosetta (DE3), purified as described in [4]

These molecules were tested against T1, pyridox(am)ine 5′-phosphate oxidase (PNPO) (assay: differential scanning fluorimetry). Details: equimolar FMN added to 2 µM purified enzyme (already FMN-bound); range given for all PNPO forms.
Assay type: binding
Description: differential scanning fluorimetry on pyridox(am)ine 5′-phosphate oxidase (PNPO) | equimolar amount of FMN stabilizes all the PNPO forms by increasing the Tm
For `Cc1cc2nc3c(=O)[nH]c(=O)nc-3n(C[C@H](O)[C@H](O)[C@H](O)COP(=O)(O)O)c2cc1C` [FMN], the “increase in Tm” value was 2–3 °C.

Molecular target: the molecule itself
Experiment: SEC; gel filtration on a Superdex 200 10/300 GL column, as described previously [20]; elution profiles compared with the wild type
Details: not given
For B1, the “stoichiometry N” value was 2. B2 was tested, and the “stoichiometry N” value was 2. For B3, the “stoichiometry N” value was 2. B4 was tested, and the “stoichiometry N” value was 2. In the case of B5, the “stoichiometry N” value is reported as 2.
